Assay [1] concerns the target Halo-PAFR Cys mutant 1.33. In words: cysteine cross-linking with CuP, SDS-PAGE blot quantification of cell surface Halo-PAFR. As to conditions: parent: est. 5, read off a plot.
Assay [2] concerns the target Halo-PAFR Cys mutant 1.35. Described as above. As to conditions: parent: est. 5, read off a plot.
Assay [3] deals with Halo-PAFR Cys mutant 1.38. Described as above. The settings on record: parent: est. 5, read off a plot.
Assay [4] addresses Halo-PAFR Cys mutant 1.39. The description is as above. The settings on record: parent: est. 5, read off a plot.
For assay [5], the target named is Halo-PAFR Cys mutant 1.41. Described as above. As to conditions: parent: est. 5, read off a plot.
The target of assay [6] is Halo-PAFR Cys mutant 2.59. The assay is described as above. The settings on record: parent: est. 5, read off a plot.
In assay [7] the target is Halo-PAFR Cys mutant 2.63. The assay is described as above. As to conditions: parent: est. 5, read off a plot.
In assay [8] the target is Halo-PAFR Cys mutant 3.23. The assay is described as above. As to conditions: parent: est. 5, read off a plot.
Assay [9] addresses Halo-PAFR Cys mutant 3.27. The assay is described as above. The settings on record: parent: est. 5, read off a plot.
The target of assay [10] is Halo-PAFR Cys mutant 4.47. The description is as above. As to conditions: parent: est. 5, read off a plot.
Assay [11] has as its target Halo-PAFR Cys mutant 4.48. The description is as above. The settings on record: parent: est. 5, read off a plot.
For assay [12], the target named is Halo-PAFR Cys mutant 4.51. The description is as above. The settings on record: parent: est. 5, read off a plot.
The target of assay [13] is Halo-PAFR Cys mutant 4.53. The description is as above. The settings on record: parent: est. 5, read off a plot.
In assay [14] the target is Halo-PAFR Cys mutant 4.54. Described as above. As to conditions: parent: est. 5, read off a plot.
The target of assay [15] is Halo-PAFR Cys mutant 4.56. Described as above. As to conditions: parent: est. 5, read off a plot.
Assay [16] deals with Halo-PAFR Cys mutant 4.57. The description is as above. As to conditions: parent: est. 5, read off a plot.
For assay [17], the target named is Halo-PAFR Cys mutant 4.58. The assay is described as above. The settings on record: parent: est. 5, read off a plot.
Assay [18] deals with Halo-PAFR Cys mutant 4.60. Described as above. The settings on record: parent: est. 5, read off a plot.
Assay [19] concerns the target Halo-PAFR Cys mutant 4.61. Described as above. The settings on record: parent: est. 5, read off a plot.
The target of assay [20] is Halo-PAFR Cys mutant 4.64. Described as above. As to conditions: parent: est. 5, read off a plot.
In assay [21] the target is Halo-PAFR Cys mutant 6.49. Described as above. As to conditions: parent: est. 5, read off a plot.
The target of assay [22] is Halo-PAFR Cys mutant 6.51. Described as above. The settings on record: parent: est. 5, read off a plot.
In assay [23] the target is Halo-PAFR Cys mutant 6.53. The description is as above. The settings on record: parent: est. 5, read off a plot.
For assay [24], the target named is Halo-PAFR Cys mutant 6.54. Described as above. The settings on record: parent: est. 5, read off a plot.
The target of assay [25] is Halo-PAFR Cys mutant 6.56. Described as above. The settings on record: parent: est. 5, read off a plot.
Assay [26] addresses Halo-PAFR Cys mutant 7.33. The assay is described as above. As to conditions: parent: est. 5, read off a plot.
The target in assay [27] is Halo-PAFR Cys mutant 7.35. The description is as above. As to conditions: parent: est. 5, read off a plot.
Assay [28] addresses Halo-PAFR Cys mutant 7.37. The description is as above. The settings on record: parent: est. 5, read off a plot.
Assay [29] has as its target Halo-PAFR Cys mutant 7.38. Described as above. The settings on record: parent: est. 5, read off a plot.
For assay [30], the target named is Halo-PAFR E178K (natural genetic variant) (human, UniProt P25105 1-342, E178K, Halo-tag covalently labelled with HaloTag Alexa Fluor 488). As to the kind of experiment: cell-based or functional assay.
Chain of Halo-PAFR E178K (natural genetic variant) (P25105 whole entry E178K): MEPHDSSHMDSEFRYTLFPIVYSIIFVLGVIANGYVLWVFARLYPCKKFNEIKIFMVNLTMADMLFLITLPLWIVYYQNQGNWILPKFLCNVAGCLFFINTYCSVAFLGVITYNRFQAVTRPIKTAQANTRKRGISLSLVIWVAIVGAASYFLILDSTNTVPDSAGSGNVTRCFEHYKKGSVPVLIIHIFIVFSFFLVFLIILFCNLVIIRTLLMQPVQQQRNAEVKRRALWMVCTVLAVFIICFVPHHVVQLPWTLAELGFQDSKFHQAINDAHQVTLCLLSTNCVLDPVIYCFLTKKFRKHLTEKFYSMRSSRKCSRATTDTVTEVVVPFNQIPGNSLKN
The target in assay [31] is Halo-PAFR Y151C^4.59-I154C^4.62 (human, UniProt P25105 1-342, Y151C^4.59 | I154C^4.62, Halo-tag covalently labelled with HaloTag Alexa Fluor 660 (blots) or HaloTag Alexa Fluor 488 (imaging)). In words: cell-based or functional assay.
Chain of Halo-PAFR Y151C^4.59-I154C^4.62 (P25105 whole entry Y151C/I154C): as the sequence (P25105 whole entry E178K) above, with Y151C, I154C, K178E counted along it

Turning to “Halo-tagged wild-type human platelet-activating factor receptor (from UniProt P25105) 1.33”, the other: change of dimer cross-linking in assay [1] was determined as 14%.

As for “Halo-tagged wild-type human platelet-activating factor receptor (from UniProt P25105) 1.35”, the other: change of dimer cross-linking in [2] amounted to 18%.

With “Halo-tagged wild-type human platelet-activating factor receptor (from UniProt P25105) 1.38”, the other: change of dimer cross-linking in assay [3] amounted to 16%.

As for “Halo-tagged wild-type human platelet-activating factor receptor (from UniProt P25105) 1.39”, in [4], the other: change of dimer cross-linking turned out to be 13%.

With “Halo-tagged wild-type human platelet-activating factor receptor (from UniProt P25105) 1.41”, the other: change of dimer cross-linking in assay [5] was 20%.

Take “Halo-tagged wild-type human platelet-activating factor receptor (from UniProt P25105) 2.59”: in assay [6], the other: change of dimer cross-linking is 21%.

“Halo-tagged wild-type human platelet-activating factor receptor (from UniProt P25105) 2.63”: the other: change of dimer cross-linking in assay [7] is 14%.

For “Halo-tagged wild-type human platelet-activating factor receptor (from UniProt P25105) 3.23”, the other: change of dimer cross-linking in [8] was 8%.

In the case of “Halo-tagged wild-type human platelet-activating factor receptor (from UniProt P25105) 3.27”, the other: change of dimer cross-linking in assay [9] was 9%.

For “Halo-tagged wild-type human platelet-activating factor receptor (from UniProt P25105) 4.47”, the other: change of dimer cross-linking in assay [10] amounted to 13%.

For the molecule “Halo-tagged wild-type human platelet-activating factor receptor (from UniProt P25105) 4.48”, in [11], the other: change of dimer cross-linking was found to be 14%.

Take “Halo-tagged wild-type human platelet-activating factor receptor (from UniProt P25105) 4.51”: in assay [12], the other: change of dimer cross-linking came to 19%.

For “Halo-tagged wild-type human platelet-activating factor receptor (from UniProt P25105) 4.53”, the other: change of dimer cross-linking in assay [13] was 20%.

In the case of “Halo-tagged wild-type human platelet-activating factor receptor (from UniProt P25105) 4.54”, the other: change of dimer cross-linking in assay [14] is 20%.

Take “Halo-tagged wild-type human platelet-activating factor receptor (from UniProt P25105) 4.56”: in assay [15], the other: change of dimer cross-linking was 22%.

As to “Halo-tagged wild-type human platelet-activating factor receptor (from UniProt P25105) 4.57”, in [16], the other: change of dimer cross-linking is 15%.

For the molecule “Halo-tagged wild-type human platelet-activating factor receptor (from UniProt P25105) 4.58”, the other: change of dimer cross-linking in assay [17] was 22%.

Consider “Halo-tagged wild-type human platelet-activating factor receptor (from UniProt P25105) 4.60”, for which, in assay [18], the other: change of dimer cross-linking turned out to be 20%.

Consider “Halo-tagged wild-type human platelet-activating factor receptor (from UniProt P25105) 4.61”, for which the other: change of dimer cross-linking in assay [19] came to 18%.

For “Halo-tagged wild-type human platelet-activating factor receptor (from UniProt P25105) 4.64”, the other: change of dimer cross-linking in assay [20] worked out at 11%.

In the case of “Halo-tagged wild-type human platelet-activating factor receptor (from UniProt P25105) 6.49”, the other: change of dimer cross-linking in assay [21] stood at 15%.

“Halo-tagged wild-type human platelet-activating factor receptor (from UniProt P25105) 6.51”: the other: change of dimer cross-linking in assay [22] is 6%.

For the molecule “Halo-tagged wild-type human platelet-activating factor receptor (from UniProt P25105) 6.53”, in [23], the other: change of dimer cross-linking was found to be 10%.

Turning to “Halo-tagged wild-type human platelet-activating factor receptor (from UniProt P25105) 6.54”, the other: change of dimer cross-linking in assay [24] worked out at 8%.

“Halo-tagged wild-type human platelet-activating factor receptor (from UniProt P25105) 6.56”: the other: change of dimer cross-linking in assay [25] turned out to be 9%.

With “Halo-tagged wild-type human platelet-activating factor receptor (from UniProt P25105) 7.33”, in assay [26], the other: change of dimer cross-linking was 15%.

On to “Halo-tagged wild-type human platelet-activating factor receptor (from UniProt P25105) 7.35”, for which, in assay [27], the other: change of dimer cross-linking stood at 16%.

For the molecule “Halo-tagged wild-type human platelet-activating factor receptor (from UniProt P25105) 7.37”, the other: change of dimer cross-linking in assay [28] turned out to be 19%.

In the case of “Halo-tagged wild-type human platelet-activating factor receptor (from UniProt P25105) 7.38”, in assay [29], the other: change of dimer cross-linking amounted to 15%.

B1: Human β-arrestin1 tagged with Rluc (natural protein, UniProt P49407 1-418, looked up)
chain: MGDKGTRVFKKASPNGKLTVYLGKRDFVDHIDLVDPVDGVVLVDPEYLKERRVYVTLTCAFRYGREDLDVLGLTFRKDLFVANVQSFPPAPEDKKPLTRLQERLIKKLGEHAYPFTFEIPPNLPCSVTLQPGPEDTGKACGVDYEVKAFCAENLEEKIHKRNSVRLVIRKVQYAPERPGPQPTAETTRQFLMSDKPLHLEASLDKEIYYHGEPISVNVHVTNNTNKTVKKIKISVRQYADICLFNTAQYKCPVAMEEADDTVAPSSTFCKVYTLTPFLANNREKRGLALDGKLKHEDTNLASSTLLREGANREILGIIVSYKVKVKLVVSRGGLLGDLASSDVAVELPFTLMHPKPKEEPPHREVPENETPVDTNLIELDTNDDDIVFEDFARQRLKGMKDDKEEEEDGTGSPQLNNR
Take B1: the “maximal efficacy of βarr1 recruitment, normalized to WT” value was ~83 % of WT in [30] and ~60 % of WT in [31].

Values taken from PMC9606269, “Biased signaling due to oligomerization of the G protein-coupled platelet-activating factor receptor” (Nature Communications, 2022).
